For this test, the target named is ERGU-1::GFP (C. elegans ERGU-1, Y87G2A.13, with GFP fused to its C-terminus) (C. elegans). Kind of test: SDS-PAGE western blot. A general note: A western blot detects proteins with antibodies after separation by electrophoresis.

Values joined by “and” are separate entries in the source; they are usually repeats but may differ in a detail not shown here. Equal values may be shown once.

In the case of “ERGU-1::GFP (C. elegans ERGU-1, Y87G2A.13, with GFP fused to its C-terminus) (natural protein)”, the stoichiometry N (in general, a count of units in the complex or per binding partner) was 2 and 4.
